In the supplement of paper PMC12042874 one finds amyloid nucleation score data, which are given here for 141 substances.

± gives the uncertainty stated by the source.

The nature of this data set: amyloid nucleation score (Sup35N fusion, yeast selection) (log enrichment); library NNK1; higher = more nucleation; inactive = no reads after selection. In a few lines:
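On medium lacking adenine and uracil, psi-negative yeast expressing peptides of 20 random codons fused to Sup35N were grown 7 days at 30°C after a 24-hour induction with 100 μM copper sulfate. Illumina sequencing of input and output plasmid inserts gave the reads, and sequences under 100 input reads were excluded. The nucleation score is the DiMSum log enrichment of output over input reads, centred on the mode score of non-aggregating sequences.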

DSNATTHVRMKVSLTGRFLR had an amyloid nucleation score of 4.8 ± 0.056.

In the case of AIWVDVTLFTEKADWVSLRR, the amyloid nucleation score amounted to 2.42 ± 0.28.

In the case of YTGIPRSS, the amyloid nucleation score was determined as 0.203 ± 0.28.

Substance AVMCYDNTSSNVSFN had an amyloid nucleation score of -0.279 ± 0.28.

As for NFRNSLRSV, the amyloid nucleation score was 1.24 ± 0.59.

Take RFSGVFSDQLVLSD: the amyloid nucleation score is -0.713 ± 0.68.

For IPRYVYIGLTPKAVLKQNLA, the amyloid nucleation score was -1.04 ± 0.84.

On to HSCTTLPL, for which the amyloid nucleation score is -0.461 ± 0.79.

YVYWR: the amyloid nucleation score is -1.82 ± 2.7.

Take RAYTCRCEFAQGFVYNLIFS: the amyloid nucleation score is 5.4 ± 0.079.

With NCLDGGMFRYIKVYRSRYSS, the amyloid nucleation score was 0.209 ± 0.2.

YKHKTFIPRFTYNETVVYYV had an amyloid nucleation score of 4.85 ± 0.087.

The substance MRGYPENKLSRSCQCRMRRY came in with an amyloid nucleation score of -0.213 ± 0.74.

On to TCVDAVVLM, for which the amyloid nucleation score worked out at 0.063 ± 0.62.

In the case of RKHVVPGKIF, the amyloid nucleation score was determined as 0.006 ± 0.51.

Consider SMFASL, for which the amyloid nucleation score was -0.229 ± 0.43.

Substance IIFNEIIHMQFDNIGDV registered an amyloid nucleation score of 3.27 ± 0.17.

With WVPGITVKMRYGPESIVDWR, the amyloid nucleation score turned out to be 0.565 ± 1.1.

As for TVTAVY, the amyloid nucleation score entry is “inactive”.

In turn, WCRIVG registered an amyloid nucleation score of 0.227 ± 0.57.

Substance VIDAIQPRKYGFV yielded an amyloid nucleation score of -0.462 ± 0.58.

On to CVHLSKRCKLPVKIISLCLN, for which the amyloid nucleation score was 0.767 ± 1.

Substance TFTSLNNVVYIDISDTSDKN registered an amyloid nucleation score of 3.81 ± 0.073.

In turn, CSDRCTTYCLFSLSDRKRIL had an amyloid nucleation score of -0.317 ± 0.25.

The substance HQEAGLGSMVQTNAHATAKP yielded an amyloid nucleation score of -0.081 ± 1.

On to CLQMRSVSYVIMRFTGKLTW, for which the amyloid nucleation score is 0.693 ± 0.32.

NIYNVRLIVSH showed an amyloid nucleation score of -0.018 ± 0.54.

AYRNKETMCSLRTCRMVCSR had an amyloid nucleation score of 0.206 ± 0.34.

On to ELMCFQQFKWKAMTYKWNGI, for which the amyloid nucleation score turned out to be 0.337 ± 0.54.

In turn, TRLCFGFWAKIEWMRSVSGV gave an amyloid nucleation score of 0.082 ± 0.64.

For the substance NLVFW, the amyloid nucleation score is 0.562 ± 0.69.

SLRGQAHLQFSLRILSHSS gave an amyloid nucleation score of 1.4 ± 0.24.

As to GNSMSHASTVKVFLAQLGGD, the amyloid nucleation score was -1.04 ± 2.1.

Substance GFEWVRVYWWGSYVGKRMGT returned an amyloid nucleation score of -0.219 ± 0.91.

Consider SLCILDEQVDHFVAEGVGID, for which the amyloid nucleation score is 0.876 ± 0.42.

VLTWFDCYLICLYTRTSLRI gave an amyloid nucleation score of 0.365 ± 0.41.

As to LVVKQLLNSAGCTRPCTVRC, the amyloid nucleation score turned out to be 0.164 ± 0.55.

Consider HTSCRTVQHLKVWFPVK, for which the amyloid nucleation score was 1.25 ± 0.74.

In turn, HGINET displayed an amyloid nucleation score of 0.357 ± 0.48.

VNYTTSQSRRDFPSNRSQSG showed an amyloid nucleation score of 0.715 ± 0.83.

The substance FAFIDMHKGC gave an amyloid nucleation score of 1.69 ± 0.17.

Turning to KTCSQSEKM, the amyloid nucleation score is -0.562 ± 0.3.

GRFGVGVWW yielded an amyloid nucleation score of 0.127 ± 0.46.

SYNDQSVAYCVLIAETVWYC displayed an amyloid nucleation score of 7.742 ± 0.055.

Take MLLRRKNIAGGYMVLEVGLS: the amyloid nucleation score was -0.1 ± 0.31.

The substance HYIVDLEQLQWDVWGIFSDS gave an amyloid nucleation score of 0.058 ± 0.73.

Substance VMWRFKSVTCI came in with an amyloid nucleation score of -0.393 ± 0.33.

MIVGGNLEEIVNHCYFCVER gave an amyloid nucleation score of 0.511 ± 0.24.

Substance FLAWRTLDEMVLCKRCDNAI had an amyloid nucleation score of 0.291 ± 1.

On to DVKFVVFSNRAWVCTSASKW, for which the amyloid nucleation score came to 4.01 ± 0.11.

Consider NYGFAIPFA, for which the amyloid nucleation score came out at 0.323 ± 0.31.

YNYVG: the amyloid nucleation score was -1.29 ± 2.7.

For the substance SEGCMSGRLCDRGVASFVWL, the amyloid nucleation score stood at 0.7 ± 0.97.

The substance VLFFKVIIYVALRMVLMEKD came in with an amyloid nucleation score of -1.18 ± 1.

HFPSHLVLRETERFKQLHCG registered an amyloid nucleation score of 0.374 ± 0.62.

RFETIDANKVILSVKCRWAK gave an amyloid nucleation score of 2.56 ± 0.17.

Take CSREYDVVGLA: the amyloid nucleation score amounted to 0.401 ± 0.28.

With QMSVAG, the amyloid nucleation score worked out at 1.38 ± 0.28.

In turn, AMNRHGLWKSSVSRGILFFS returned an amyloid nucleation score of 0.129 ± 0.35.

For SLISCEWSYTWCGKFVILLV, the amyloid nucleation score is -0.707 ± 1.1.

Consider TSPYAFKRWFSLGLYDLSRF, for which the amyloid nucleation score entry was “inactive”.

TVGSLRAW had an amyloid nucleation score of 1.15 ± 0.62.

On to HYRSHSIGIRFAVSDWRIAF, for which the amyloid nucleation score is 0.844 ± 0.46.

In turn, SSLWTFTHRSKVGRYDFMAV showed an amyloid nucleation score of -1.51 ± 1.1.

The substance WLQTTYLGLFMVFTGFEGY displayed an amyloid nucleation score of -0.586 ± 0.55.

In the case of LWSVCLVTSVQKDAGVLPSG, the amyloid nucleation score is 0.85 ± 0.62.

For the substance SMGLHLMQMAAGEHIGRNR, the amyloid nucleation score is -0.31 ± 0.4.

Consider MFRYNCRRAIQIVFMYLWTP, for which the amyloid nucleation score was found to be 0.779 ± 0.28.

LETRLVYLWENLPLAQTNVA: the amyloid nucleation score was determined as 0.238 ± 0.48.

In turn, FSDMDVTQPENKDWHLEE came in with an amyloid nucleation score of 1.23 ± 0.9.

With LYGYCFMLVSRESFLVRSGW, the amyloid nucleation score is -0.272 ± 0.52.

GLRYFKLLLSEGSR gave an amyloid nucleation score of -0.209 ± 1.

In the case of VQRCWYGR, the amyloid nucleation score was -1.94 ± 2.7.

In turn, DCDYGCLKLSEEFGSVSSFR showed an amyloid nucleation score of 0.165 ± 1.4.

LFCHPSFYINGMWSLGGSGG gave an amyloid nucleation score of -0.578 ± 0.66.

In turn, SYGLCMMAFLSLDAS yielded an amyloid nucleation score of 0.517 ± 0.28.

In turn, WYENMFN registered an amyloid nucleation score of 3.15 ± 0.14.

Regarding INCQMWYRGPYIIQFLNLGW, the amyloid nucleation score was found to be 6.846 ± 0.055.

For TMVCKGSCFWSSWSITFPLQ, the amyloid nucleation score result is “inactive”.

Substance LIFLDMAVL showed an amyloid nucleation score of -0.403 ± 1.4.

The substance FGFLLHGDDDQEGIVTGRGG came in with an amyloid nucleation score of 0.384 ± 0.76.

On to TCRFIGEYLRIRYT, for which the amyloid nucleation score is 0.367 ± 0.58.

The substance KLALRKGSRDVH gave an amyloid nucleation score of 0.661 ± 0.97.

The substance SDGCYALIWFGREQ gave an amyloid nucleation score of -1.24 ± 1.1.

The substance CWLRIGSSFRRARSGWTCDS had an amyloid nucleation score of -0.834 ± 0.91.

NNNAMQVDVILMRFWVKVAV returned an amyloid nucleation score of 0.492 ± 0.89.

Consider RIKRILFFYSVRIWDLSDG, for which the amyloid nucleation score came out at 2.52 ± 0.12.

Take FLGWICICPGQYRSAGPTAL: the amyloid nucleation score was -0.487 ± 0.43.

LISVCRFLAIILFRTFA had an amyloid nucleation score of 0.365 ± 0.69.

Take LSSYSTYPCSLTGVRKLNCR: the amyloid nucleation score is -0.205 ± 0.56.

In turn, DFSRWIFMTHY had an amyloid nucleation score of -1.06 ± 0.99.

The substance CESQMSRVDVLSCYMYGSVM gave an amyloid nucleation score of 0.303 ± 0.4.

Consider CSCINSHLWSTSG, for which the amyloid nucleation score was 0.386 ± 0.32.

As to DYRYTNCCWQSPKRRGWQSY, the amyloid nucleation score is 0.967 ± 0.59.

MLANSLFFT registered an amyloid nucleation score of -1.23 ± 1.6.

EYLCLI registered an amyloid nucleation score of 0.147 ± 0.45.

For FLRKHHSIMMVFMRIQGLRM, the amyloid nucleation score is -1.72 ± 1.7.

Turning to VKLSMLWLMARLWGRLTCSG, the amyloid nucleation score is -0.293 ± 0.47.

In turn, LQASLGNDPSSVRVSSRGNW displayed an amyloid nucleation score of -0.468 ± 0.54.

The substance KFIEMRRNKSPKHLPAWASD registered an amyloid nucleation score of 0.911 ± 0.54.

Turning to EFNDCGSLWFGFIRYIILMN, the amyloid nucleation score was determined as 0.081 ± 0.25.

Turning to VFVSWHKVCTNQRSLRQVHL, the amyloid nucleation score is 1.56 ± 0.48.

Regarding LNTAQI, the amyloid nucleation score amounted to 0.512 ± 0.29.

On to HAEWGGDAKPTRYRRRNEAG, for which the amyloid nucleation score result was “inactive”.

The substance KTSNKWMIKRNYRAYGHCSV displayed an amyloid nucleation score of -0.357 ± 0.37.

In the case of YFSDIAMWHSEIVR, the amyloid nucleation score is -0.605 ± 0.73.

With VWMRVKIGGVWC, the amyloid nucleation score is 1.58 ± 0.47.

VLVDKSDRVRGLS returned an amyloid nucleation score of -0.101 ± 0.3.

As to RYVHSAQLFVNATPHRLRLV, the amyloid nucleation score was 0.578 ± 0.34.

STSIDVWRSALLRVFGFTIY returned an amyloid nucleation score of 0.171 ± 0.37.

For KNHYYFA, the amyloid nucleation score was -0.203 ± 0.38.

QLETTLFGNAEACLFSSKGR yielded an amyloid nucleation score of 0.522 ± 0.49.

Regarding GHLSA, the amyloid nucleation score result is “inactive”.

In the case of EMHFR, the amyloid nucleation score is 0.024 ± 0.65.

FCPPYLSHNNYYWLLVRVFV: the amyloid nucleation score was found to be 0.322 ± 0.37.

The substance KNVARVHMQCLPAYVLGRNH displayed an amyloid nucleation score of 0.018 ± 0.66.

In turn, GRYTYDTMFTGWGASDELHI returned an amyloid nucleation score of 1.14 ± 0.97.

For the substance LVLMWLLSGYGAHHFYYAK, the amyloid nucleation score is 0 ± 1.2.

The substance EEPLIGLDKMPYPGTVYEIA yielded an amyloid nucleation score of 0.066 ± 0.87.

With NSAILITNIECLYNIITLFT, the amyloid nucleation score was 6.389 ± 0.048.

Turning to NFIVVMCTIMNLCYKAQPNE, the amyloid nucleation score result is “inactive”.

With TTSFRHSVYQDYGLSVIDCG, the amyloid nucleation score is -0.351 ± 0.78.

As for VFLVIVRYWCFFYHPVDTAN, the amyloid nucleation score entry was “inactive”.

SHRYFKWLRSIDEEVVESL registered an amyloid nucleation score of 0.677 ± 0.9.

For the substance FLMPCFMKVGFVREEPWWRR, the amyloid nucleation score was 0.096 ± 0.78.

As for IENSIGGMQLGVSISYMSGT, the amyloid nucleation score amounted to 0.208 ± 0.41.

In the case of ICMKLLFEYLVPVLRQAH, the amyloid nucleation score was -0.307 ± 1.2.

In turn, KFDPVKQYLCMYFFTYQIES displayed an amyloid nucleation score of 2.06 ± 0.15.

RWSVSINWTRSEEHDFRNCV showed an amyloid nucleation score of 1.37 ± 0.43.

For the substance GCALPQYKILWSFRFYWVGN, the amyloid nucleation score entry is “inactive”.

PETFLPTSRVPEMGKLDTLS showed an amyloid nucleation score of 0.456 ± 0.22.

For YNLYS, the amyloid nucleation score was -0.626 ± 1.1.

With YVVNYYNRQSIGCFVWTWRR, the amyloid nucleation score stood at 8.169 ± 0.05.

Take FPGLTFILAGMLCMTCKIRG: the amyloid nucleation score stood at 4.12 ± 0.13.

With MGVYTCR, the amyloid nucleation score entry was “inactive”.

As for GYFVYYFLFIYCVFRVFSTL, the amyloid nucleation score was found to be 4.82 ± 0.12.

LKCLLKHGFTRNG came in with an amyloid nucleation score of -2.08 ± 2.7.

Turning to ENSPLK, the amyloid nucleation score was determined as 0.493 ± 0.4.

Take MRWIVWYVIS: the amyloid nucleation score was -0.859 ± 1.4.

In the case of KNFAVRWNPVTSDWFVTLSV, the amyloid nucleation score is -0.429 ± 0.4.

In turn, NGYFGAEDFLIVWIALRKKW came in with an amyloid nucleation score of 0.5 ± 0.9.
